Literature values in publication PMC10426772.

What was measured:
[1] = molecular target: IGF receptor (human BBB) (Homo sapiens) (UniProt P08069); test: radio-receptor assay
[2] = molecular target: IGF receptor (IGF1R, brain capillary) (Homo sapiens) (UniProt P08069); test: radio-receptor assay with [125I]-IGF2
[3] = molecular target: insulin receptor (HIR, brain capillary) (Homo sapiens) (UniProt P06213); test: radio-receptor assay with [125I]-insulin
[4] = molecular target: leptin receptor (Homo sapiens) (UniProt P48357); test: radio-receptor assay
Sequence of leptin receptor (Homo sapiens) (P48357 22-839): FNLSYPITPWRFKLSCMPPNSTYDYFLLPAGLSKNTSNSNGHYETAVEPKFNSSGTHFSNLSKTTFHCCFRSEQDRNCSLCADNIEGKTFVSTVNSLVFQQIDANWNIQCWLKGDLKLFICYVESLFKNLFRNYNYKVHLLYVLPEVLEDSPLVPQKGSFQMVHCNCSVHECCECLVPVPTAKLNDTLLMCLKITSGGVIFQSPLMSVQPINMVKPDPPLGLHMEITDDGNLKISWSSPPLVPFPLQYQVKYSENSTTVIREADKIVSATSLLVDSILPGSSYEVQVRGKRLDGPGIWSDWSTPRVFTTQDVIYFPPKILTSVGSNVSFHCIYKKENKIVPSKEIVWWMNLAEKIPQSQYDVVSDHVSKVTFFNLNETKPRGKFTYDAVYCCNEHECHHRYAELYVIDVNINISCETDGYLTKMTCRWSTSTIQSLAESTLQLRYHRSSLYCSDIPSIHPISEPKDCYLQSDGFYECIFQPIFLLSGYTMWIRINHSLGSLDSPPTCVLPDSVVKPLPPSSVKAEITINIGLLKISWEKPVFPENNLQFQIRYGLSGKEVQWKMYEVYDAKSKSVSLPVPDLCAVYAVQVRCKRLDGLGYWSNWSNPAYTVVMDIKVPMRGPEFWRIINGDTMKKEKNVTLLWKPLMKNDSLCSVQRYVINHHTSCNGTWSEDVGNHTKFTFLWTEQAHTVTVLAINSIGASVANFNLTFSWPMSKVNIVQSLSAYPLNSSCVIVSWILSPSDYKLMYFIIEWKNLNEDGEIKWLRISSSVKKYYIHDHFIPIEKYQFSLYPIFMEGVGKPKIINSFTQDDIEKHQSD

Sequence of leptin (P41159 22-167): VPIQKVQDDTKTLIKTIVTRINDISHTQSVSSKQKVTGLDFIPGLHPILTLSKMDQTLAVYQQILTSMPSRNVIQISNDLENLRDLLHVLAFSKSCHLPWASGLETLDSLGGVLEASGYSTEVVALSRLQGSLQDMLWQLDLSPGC
Sequence of insulin (P01308 90-110): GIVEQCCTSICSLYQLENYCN

For IGF2 (from UniProt P01344), the Kd [1] is listed as 1.1 nM and the Kd [2] is listed as 1.1 nM.

For insulin (from UniProt P01308), the Kd [3] is given as 1.2 nM.

For leptin (from UniProt P41159), the Kd [4] is given as 5.1 nM.
